Results as given in patent US10590193 (dated 2020).
Residue numbers refer to the chain shown, from its start. Numbers in names are those of the source.

T1: human VEGF121 (human, UniProt P15692)
T1 chain: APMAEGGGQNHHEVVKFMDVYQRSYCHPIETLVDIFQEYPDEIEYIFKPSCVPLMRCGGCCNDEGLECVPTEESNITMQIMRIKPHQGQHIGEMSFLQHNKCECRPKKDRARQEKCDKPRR

T2: mouse VEGF164 (mouse, UniProt Q00731)
T2 chain: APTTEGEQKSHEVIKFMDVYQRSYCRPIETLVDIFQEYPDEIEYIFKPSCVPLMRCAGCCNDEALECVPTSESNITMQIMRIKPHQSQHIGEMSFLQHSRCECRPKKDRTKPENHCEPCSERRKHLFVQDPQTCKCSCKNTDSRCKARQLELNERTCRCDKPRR

T3: human VEGF165 (human, UniProt P15692)
T3 chain: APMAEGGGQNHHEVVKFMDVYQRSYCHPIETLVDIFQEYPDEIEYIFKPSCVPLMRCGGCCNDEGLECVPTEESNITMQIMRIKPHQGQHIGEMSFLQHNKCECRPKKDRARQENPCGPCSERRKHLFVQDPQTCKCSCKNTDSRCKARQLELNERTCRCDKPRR

T4: rat VEGF164 (rat, UniProt P16612)
T4 chain: T2 chain with S10A, I14V, I75V

T5: human PlGF (human, UniProt P49763)
T5 chain: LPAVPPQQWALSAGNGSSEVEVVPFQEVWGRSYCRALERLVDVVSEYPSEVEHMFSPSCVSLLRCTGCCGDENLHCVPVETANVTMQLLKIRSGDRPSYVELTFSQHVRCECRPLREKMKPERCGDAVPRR

T6: human VEGF110 (human, UniProt P15692)
T6 chain: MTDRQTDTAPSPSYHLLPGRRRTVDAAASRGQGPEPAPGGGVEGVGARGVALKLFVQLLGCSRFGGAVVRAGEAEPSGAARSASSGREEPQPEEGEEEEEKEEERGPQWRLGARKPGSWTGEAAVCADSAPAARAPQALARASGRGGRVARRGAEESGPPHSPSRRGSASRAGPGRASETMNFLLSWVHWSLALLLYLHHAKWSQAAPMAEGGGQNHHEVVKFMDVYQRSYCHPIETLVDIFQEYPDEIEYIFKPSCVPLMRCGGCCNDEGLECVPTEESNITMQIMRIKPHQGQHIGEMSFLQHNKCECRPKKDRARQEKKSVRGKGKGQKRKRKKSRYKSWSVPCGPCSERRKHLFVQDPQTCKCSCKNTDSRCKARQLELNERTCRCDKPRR

B1: 509-min (antibody, V domains shown)
VH: EVQLVESGGGLVQPGGSLRLSCAASGFSLSSYYMCWVRQAPGKGLEWVSCLDYVGDTDYASWAKGRFTISRDNSKNTLYLQMNSLRAEDTAVYYCAKTDDSRGWGLNIWGQGTLVTVSS
VL: EIVMTQSPSTLSASVGDRVIITCQASQNIRIWLSWYQQKPGKAPKLLIYKASTLESGVPSRFSGSGSGAEFTLTISSLQPDDFATYYCQNNAHYSTNGGTFGQGTKLTVLG
B2: 567-max (antibody, V domains shown)
VH: EVQLVESGGGLVQPGGSLRLSCSVSGFSLSDYYMCWVRQAPGKGLEWVGCLDYFGSTDDASWAKGRFTISKDTSKNTVYLQMNSLRAEDTAVYYCARTDDSRGWGLNIWGQGTLVTVSS
VL: B1 VL with S26D, N28S, R30Y, A69T, E70Q
B3: 578-min (antibody, V domains shown)
VH: EVQLVESGGGLVQPGGSLRLSCAASGFSLTDYYYMTWVRQAPGKGLEWVSFIDPDDDPYYATWAKGRFTISRDNSKNTLYLQMNSLRAEDTAVYYCAKGDHNSGWGLDIWGQGTLVTVSS
VL: EIVMTQSPSTLSASVGDRVIITCQASEIIHSWLAWYQQKPGKAPKLLIYLASTLASGVPSRFSGSGSGAEFTLTISSLQPDDFATYYCQNVYLASTNGANFGQGTKLTVLG
B4: 578-max (antibody, V domains shown)
VH: B3 VH with A23T, S50G, N74T, L79V, K98G
VL: B3 VL with A69T, E70Q
B5: 567-min (antibody, V domains shown)
VH: B1 VH with S31D, V54F, D56S, Y59D
VL: B1 VL with S26D, N28S, R30Y
B6: 578-max FW1.4_DHP (960) (antibody, V domains shown)
VH: B3 VH with L11S, A23T, S50G, N74T, L79V, V93T, K98G, L115T
VL: B3 VL with A69T, E70Q
B7: 578min_max V89L (980) (antibody, V domains shown)
VH: B3 VH with A23T, S50G, N74T, K98G
VL: B3 VL
B8: 578min_max T84N_V89A (1009) (antibody, V domains shown)
VH: B3 VH with A23T, S50G, L79A, K98G
VL: B3 VL
B9: 578-max-min (902) (antibody, V domains shown)
VH: B3 VH
VL: B3 VL with A69T, E70Q
B10: 578 wildtype C-His (798) (antibody, V domains shown)
VH: QSVEESGGRLVTPGTPLTLTCTASGFSLTDYYYMTWVRLAPGKGLEYIGFIDPDDDPYYATWAKGRFTISRTSTTVNLKMTSPTTEDTATYFCAGGDHNSGWGLDIWGPGTLVTVSL
VL: DVVMTQTPSSVSAAVGDTVTINCQASEIIHSWLAWYQQKPGQPPKLLIYLASTLASGVPSRFKGSGSGTQFTLTISDLECADAAIYYCQNVYLASTNGANFGGGTEVVVK
B11: 578min_max V89A (978) (antibody, V domains shown)
VH: B3 VH with A23T, S50G, N74T, L79A, K98G
VL: B3 VL
B12: 511max_min (905) (antibody, V domains shown)
VH: EVQLVESGGGLVQPGGSLRLSCAASGFSLNTYYMNWVRQAPGKGLEWVSIIAPDDTTYYASWAKSRFTISRDNSKNTLYLQMNSLRAEDTAVYYCAKSGDTTAWGADIWGQGTLVTVSS
VL: EIVMTQSPSTLSASVGDRVIITCQASQSINIWLSWYQQKPGKAPKLLIYRASTLASGVPSRFSGSGSGTEFTLTISSLQPDDFATYYCQANYAYSAGYGAAFGQGTKLTVLG
B13: 511min_max (904) (antibody, V domains shown)
VH: B12 VH with A23T, A24V, S49G, F67S, N73T, L78V, K97R
VL: B12 VL with L33C, T69A
B14: 578min_max T84N (991) (antibody, V domains shown)
VH: B3 VH with A23T, S50G, L79V, K98G
VL: B3 VL
B15: 375-max (antibody, V domains shown)
VH: EVQLVESGGGLVQPGGSLRLSCKASGFSFTTTDYMCWVRQAPGKGLEWVGCILAGDGSTYYANWAKGRFTGSKDTSKNTVYLQMNSLRAEDTAVYYCARSDPASSWSFALWGQGTLVTVSS
VL: EIVMTQSPSTLSASVGDRVIITCQASENINIWLSWYQQKPGKAPKLLIYQASKLASGVPSRFSGSGSGTQFTLTISSLQPDDFATYYCQNNYSYNRYGAPFGQGTKLTVLG
B16: 534-max (antibody, V domains shown)
VH: EVQLVESGGGLVQPGGSLRLSCTASGFSLSYYYMSWVRQAPGKGLEWVGIIGPGDYTDYASWAKGRFTISKDTSKNTVYLQMNSLRAEDTAVYYCARGDDNSGWGEDIWGQGTLVTVSS
VL: EIVMTQSPSTLSASVGDRVIITCQASQSINIWLSWYQQKPGKAPKLLIYKESTLASGVPSRFSGSGSGTEFTLTISSLQPDDFATYYCQNNYDSGNNGFPFGQGTKLTVLG
B17: 435-max (antibody, V domains shown)
VH: EVQLVESGGGLVQPGGSLRLSCKVSGFSLNTNYWMCWVRQAPGKGLEWVGCMYTGSYNRAYYASWAKGRFTSSKDTSKNTVYLQMNSLRAEDTAVYYCAKGSNWYSDLWGQGTLVTVSS
VL: EIVMTQSPSTLSASVGDRVIIKCQASQSIGSSLAWYQQKPGKAPKLLIYTAANLASGVPSRFSGSGSGAEFTLTISSLQPDDFATYYCQNFATSDTVTFGQGTKLTVLG
B18: 534-min C-His (antibody, V domains shown)
VH: B16 VH with T23A, G49S, K71R, T73N, V78L, R97K
VL: B16 VL with T69A

Molecular target: T1, human VEGF121
Assay: SPR, pH 5

| Binder | Kd [nM] |
| --- | --- |
| B1 | 1.28 |
| B2 | 0.0511 |
| B3 | 9.16 |
| B4 | 0.95 |
| B5 | 0.0241 |

Molecular target: T2, mouse VEGF164
Assay: SPR, pH 5

| Binder | Kd [nM] |
| --- | --- |
| B1 | 1.63 |
| B2 | 0.0929 |
| B3 | 10.7 |
| B4 | 0.429 |
| B5 | 0.17 |

Molecular target: T3, human VEGF165
Assay: SPR, pH 5

| Binder | Kd [nM] |
| --- | --- |
| B6 | 0.266 |
| B7 | 2.13 |
| B8 | 0.615 |
| B9 | 6.55 |
| B10 | 0.2 |
| B11 | 1.2 |
| B12 | 1.48 |
| B13 | 0.278 |
| B14 | 0.971 |

Molecular target: T3, human VEGF165
Assay: SPR, pH 7.4

| Binder | Kd [nM] |
| --- | --- |
| B1 | 3.06 |
| B2 | 0.143 |
| B3 | 0.181 |
| B4 | 0.0237 |
| B5 | 0.631 |
| B15 | 4.74 |
| B16 | 2.47 |
| B17 | 0.0922 |

Molecular target: T4, rat VEGF164
Assay: SPR, pH 5

| Binder | Kd [nM] |
| --- | --- |
| B1 | 2.41 |
| B2 | 0.149 |
| B3 | 10.7 |
| B4 | 0.598 |
| B5 | 0.279 |

Molecular target: T3, human VEGF165
Assay: SPR, pH 5
Remark: another data set of the same source

| Binder | Kd [nM] |
| --- | --- |
| B1 | 1.82 |
| B2 | 0.188 |
| B3 | 9.01 |
| B4 | 0.439 |
| B5 | 0.23 |
| B15 | 2.68 |
| B18 | 34.1 |
| B16 | 9.21 |
| B17 | 4.53 |

Molecular target: T5, human PlGF
Assay: SPR, pH 5

| Binder | binding result |
| --- | --- |
| B1 | no binding |
| B2 | no binding |
| B3 | no binding |
| B4 | no binding |
| B5 | no binding |

Molecular target: T6, human VEGF110
Assay: SPR, pH 5

| Binder | Kd [nM] |
| --- | --- |
| B1 | 1.65 |
| B2 | 0.0327 |
| B3 | 11.4 |
| B4 | 1.38 |
| B5 | 0.0251 |
